Assay results published in patent publication US20240239878A1 (SHANGHAI QILU PHARMACEUTICAL RESEARCH AND DEVELOPMENT CENTRE, published 2024).
Read-outs that look alike come from different tables or passages of the source.

T1: human DLL3 on SHP-77 cells (human, UniProt Q9NYJ7 27-618)
T1 construct: also called DLL3-expressing cells (SHP-77)
T1 sequence: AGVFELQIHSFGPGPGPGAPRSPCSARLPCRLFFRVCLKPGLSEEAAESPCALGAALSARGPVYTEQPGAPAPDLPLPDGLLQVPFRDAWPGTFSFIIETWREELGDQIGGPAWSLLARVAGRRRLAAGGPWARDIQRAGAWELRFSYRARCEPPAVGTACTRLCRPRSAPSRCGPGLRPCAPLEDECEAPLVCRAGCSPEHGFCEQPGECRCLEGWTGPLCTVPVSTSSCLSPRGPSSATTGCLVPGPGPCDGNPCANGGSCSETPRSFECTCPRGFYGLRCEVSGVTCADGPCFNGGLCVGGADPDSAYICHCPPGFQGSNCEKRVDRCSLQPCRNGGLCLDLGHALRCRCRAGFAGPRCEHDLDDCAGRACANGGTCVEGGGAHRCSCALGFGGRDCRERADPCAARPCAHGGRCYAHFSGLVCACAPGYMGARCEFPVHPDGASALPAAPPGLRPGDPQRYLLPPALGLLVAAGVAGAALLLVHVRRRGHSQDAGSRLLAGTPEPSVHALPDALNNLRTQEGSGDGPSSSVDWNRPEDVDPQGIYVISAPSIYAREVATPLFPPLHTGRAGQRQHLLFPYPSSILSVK

T2: Cynomolgus monkey DLL3 on HEK293 cells (HEK293-cyno DLL3) (Cynomolgus monkey, UniProt Q9NYJ7 27-618 (human entry))
T2 chain: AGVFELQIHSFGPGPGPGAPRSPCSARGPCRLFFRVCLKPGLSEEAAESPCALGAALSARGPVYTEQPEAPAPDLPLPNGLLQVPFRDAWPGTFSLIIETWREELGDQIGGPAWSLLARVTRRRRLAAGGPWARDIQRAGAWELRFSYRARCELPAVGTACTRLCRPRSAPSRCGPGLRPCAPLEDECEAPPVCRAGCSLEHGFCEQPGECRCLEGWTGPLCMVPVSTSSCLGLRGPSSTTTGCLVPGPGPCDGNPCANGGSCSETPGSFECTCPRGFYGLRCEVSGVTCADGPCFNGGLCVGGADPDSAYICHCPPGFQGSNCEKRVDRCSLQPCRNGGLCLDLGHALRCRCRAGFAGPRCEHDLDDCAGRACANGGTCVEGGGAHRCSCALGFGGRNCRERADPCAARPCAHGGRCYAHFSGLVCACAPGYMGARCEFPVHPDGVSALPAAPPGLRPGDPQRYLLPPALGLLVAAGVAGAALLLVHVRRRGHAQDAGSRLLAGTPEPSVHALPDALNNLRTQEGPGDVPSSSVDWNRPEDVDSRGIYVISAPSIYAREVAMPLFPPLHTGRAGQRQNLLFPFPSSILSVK


Columns and labels:
[1] = biological target: T1, human DLL3 on SHP-77 cells; experiment: flow cytometry, SHP-77 cells
Method: (§1) SHP-77 and HEK293-cyno DLL3 cells were cultured. The culture medium for SHP-77 cells were RPMI1640+10% FBS, and the culture medium for HEK293 cyno DLL3 cells was DMEM+10% FBS+200 μg/ml Hygromycin. The cells were cultured in a T75 cell culture flask at a 37° C. 5% CO₂ incubator. When using cells, they are washed with sterile DPBS, digested with 0.25% trypsin EDTA for about 5 minutes, and then stopped with a complete medium.
(§2) The digested cells were centrifuged at 1000 rpm for 5 min at room temperature. The supernatant was discarded and the cells were resuspended in 100 μL of 1% BSA (in PBS). The cells were counted and adjusted to a cell density of 1E6/m. The dilute cells were seeded in a 96-well round-bottom culture plate (corning 3799), and centrifuged at 1500 rpm for 5 min at 4° C. The supernatant was discarded and the cells were stored at 4° C. until use. Antibody samples to be tested were diluted with 1% BSA (in PBS) at a starting concentration of 100 nM, downwards by a 10-fold gradient for 7 concentrations. The cells were resuspended with the diluted antibody at 100 μL/well and incubated for 1 hour at 4° C. The cells were centrifuged at 1500 rpm for 5 minutes at 4° C. and the supernatant was discarded. The cells were resuspended and washed with 160 μL of 1% BSA (in PBS), centrifuged at 1500 rpm for 5 minutes at 4° C. The supernatant was discarded. The secondary antibody (goat anti human IgG Fc PE) was diluted 1:200 with 1% BSA (in PBS) according to the manufacturer's instructions and the cells were resuspended with the diluted secondary antibody. 100 µL/well, and incubated for 0.5 h at 4° C. The cells were centrifuged at 1500 rpm for 5 minutes at 4° C. and the supernatant was discarded. The cells were resuspended and washed with 160 μL of 1% BSA (in PBS), centrifuged at 1500 rpm for 5 minutes at 4° C. The supernatant was discarded. The cells were resuspended in 100 μL of 1% BSA (in PBS), and filtered across a 300 mesh gauze. The mean fluorescence intensity of the PE channels was measured by flow cytometry.
(§3) The analyzed mean fluorescence intensity was imported into Graphpad to analyze the median-binding concentration (hereinafter referred to as EC50) of antibody and cell and the top mean fluorescence intensity (Top MFI).

[2] = biological target: T1, human DLL3 on SHP-77 cells; experiment: flow cytometry, SHP-77 cells; remark: listed apart in the source
Method: as §1, with “cells were” for “cells was”
as §2, with “antibody,” for “antibody.”, “μL/well,” for “µL/well,”
as §3

[3] = biological target: T2, Cynomolgus monkey DLL3 on HEK293 cells …; experiment: flow cytometry, HEK293-cyno DLL3 cells
Method: as §1, with “cells were” for “cells was”
as §2, with “antibody,” for “antibody.”, “μL/well,” for “µL/well,”
as §3

[4] = biological target: T1, human DLL3 on SHP-77 cells; experiment: flow cytometry, SHP-77 cells; remark: listed apart in the source
Method: SHP-77 cells were cultured. The culture medium for SHP-77 cells was RPMI1640+10% FBS. The cells were cultured in a T75 cell culture flask at a 37° C. 5% CO₂ incubator. When using cells, they are washed with sterile DPBS, digested with 0.25% trypsin EDTA for about 5 minutes, and then stopped with a complete medium.
as §2, with “plated” for “seeded”, “antibody,” for “antibody.”
as §3

Row | EC50 [1] [nM] | Top MFI [1] [MFI] | EC50 [2] [nM] | Top MFI [2] [MFI] | EC50 [3] [nM] | Top MFI [3] [MFI] | Binder | other results
1 | 1.45 | 178 | – | – | – | – | 47E12D12-1 mouse hybridoma-derived anti-DLL3 chimeric antibody (antibody, V domains shown) VH: EVQLVESGGGLVKPGGSLKLSCAASGFTFSDYGMHWVRQAPEKGLEWVAYISSGSSTIYYADTVKGRFTISRDNAKNTLFLQMTSLRSEDTAMYYCARNSRGFAYWGQGTLVTVSA VL: DIVLTQSPAIMSASPGEKVTMTCSASSSVSYMYWYQQKPGSSPRLLIYDTSNLASGVPVRFSGSGSGTSYSLTISRMEAEDAATYYCQQWSSYPRTFGGGTKLEIK | –
2 | 69.3 | 455 | – | – | – | – | 47E12D12-2 mouse hybridoma-derived anti-DLL3 chimeric antibody (antibody, V domains shown) VH: EVQLVESGGGLVKPGGSLKLSCAASGFTFSDYGMHWVRQAPEKGLEWVAYISSGSSTIYYADTVKGRFTISRDNAKNTLFLQMTSLRSEDTAMYYCARNSRGFAYWGQGTLVTVSA VL: DIVLIQSPTIMSASPGEKVTMTCSASSSVSSMHWYQQKSGTSPKRWIYDTSKLASGVPARFSGSGSGTSYSLTISTMEAEDAATYYCQQWNSYHLTFGAGTKLELK | –
3 | – | – | 0.052 | 690 | 2.36 | 178 | hDLL3-12-1 camelid-derived humanized anti-DLL3 antibody (antibody, V domains shown) VH: QVQLVESGGGVVQPGRSLRLSCAASGFAFSSYDMHWVRQAPGKGLEWVSSISRDGRGPRYADSVKGRFTISRDNSKNTLYLQMNSLRAEDTAVYYCSKGYPIMGGTTQGTLVTVSS | –
4 | – | – | 0.081 | 804 | 1.35 | 190 | hDLL3-12-2 camelid-derived humanized anti-DLL3 antibody (antibody, V domains shown) VH: QVQLVESGGGVVQPGRSLRLSCAASGFAFSSYDMHWVRQAPGKDFEWVSSISRDGRGPRYADSVKGRFTISRDNSKNTLYLQMNSLRAEDTAVYYCSKGYPIMGGTTQGTLVTVSS | –
5 | – | – | 0.389 | 622 | 1.01 | 148 | hDLL3-276 camelid-derived humanized anti-DLL3 antibody (antibody, V domains shown) VH: QVQLVESGGGVVQPGGSLRLSCAASGSTASTTYMGWFRQAPGKGREGVAIIYTARDNPWYADSVKGRFTISRDNSKNTLYLQMNSLRAEDTAVYYCAATLANPTRTAWGQGTLVTVSS | –
6 | 8.63 | 193 | – | – | – | – | 39E2D11-2 mouse hybridoma-derived anti-DLL3 chimeric antibody (antibody, V domains shown) VH: QVQLKQSGPGLVQPSQSLSITCTVSGFSLTSYGVHWVRQSPGKGLEWLGVIWSGGSTDYNAAFISRLSISKDNPKSQVFFKMNSLQADDTAIYYCARENYYGNSLWFFDVWGTGTTVTVSS VL: DIVLTQSPATLSVTPGDSVSLSCRASQSINNNLHWYQQKSHESPRLLIKYVSQSISGIPSRFSGSGSGTDFTLTINSVETEDFGMYFCQQTNSWPLTFGAGTKLELK | –
7 | – | 369 | – | – | – | – | 40G3D1 mouse hybridoma-derived anti-DLL3 chimeric antibody (antibody, V domains shown) VH: QVQLQQSGAELVKPGASVKISCKASGYAFSSQWMNWVKQRPGKGLEWIGQIYPGNGDTNYNGKFKGKATLTADKSSSTAYIQLSSLTSEDSAVYFCARWFAYWGQGTLVTVSA VL: DIVLTQSPVTLSVTPGDSVSLSCRASQSVRNNLHWYQQKSHESPRLLIKYVSQSISGIPSRFSGSGSGTDFTLSINSVETEDFGVYFCQQSNSWPLTFGAGTKLELK | –
8 | – | – | – | – | – | – | H1-39E2D11 mouse hybridoma-derived humanized anti-DLL3 antibody (antibody, V domains shown) VH: QVQLVQSGAEVKKPGASVKVSCKASGYTFISYWITWVRQAPGQGLEWMGDIYPGSGSTTNYNEKFKSRVTMTRDTSTSTVYMELSSLRSEDTAVYYCARETTVGGAYAMDYWGQGTLVTVSS VL: EIVLTQSPATLSLSPGERATLSCRASQSINNNLHWYQQKPGQAPRLLIYYVSQSISGIPARFSGSGSGTDFTLTISSLEPEDFAVYYCQQTNSWPLTFGGGTKLEIK | EC50 [4]: 2.13 nM; Top MFI [4]: 1430 MFI
